Test results taken from the supplement of paper PMC12042874.
± gives the uncertainty stated by the source.

Experiment: amyloid nucleation score (Sup35N fusion, yeast selection) (log enrichment); library NNK2; higher = more nucleation; inactive = no reads after selection
How it was run: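 The nucleation score is a DiMSum log enrichment of output over input reads, centred on the mode score of non-aggregating sequences. Sequences under 100 input reads were excluded, and reads came from Illumina sequencing of plasmid inserts. Psi-negative yeast expressing Sup35N fused to peptides of 20 random codons were induced with 100 μM copper sulfate for 24 hours and grown 7 days at 30°C on medium lacking adenine and uracil. Random libraries had three technical output replicates.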

In order of falling amyloid nucleation score:
1. SSTVCCHALVCSVSNFGFTV  9.783 ± 0.038
2. SYSVQAALVCVFGGCNHVGS  9.383 ± 0.048
3. SPKTDDTTVMGELYVWLTLG  8.338 ± 0.036
4. SYASWYCLYCKNSGQGFLFE  7.948 ± 0.026
5. SNSVCACCKCWLGLSLPYQG  7.781 ± 0.046
6. SVDYLCFVFNGGRSSSECQY  7.755 ± 0.032
7. TACSQVVGVIHIIVGRGRSR  7.292 ± 0.045
8. TAKDTPCAVRIIFEFLDGLV  7.279 ± 0.056
9. SMRVYHSHLNWFH  6.63 ± 0.063
10. SWRIDNVGSRWSTMVCC  6.09 ± 0.063
11. SMRCLIMCATDCRNDMGRLW  5.362 ± 0.039
12. SSRSTCNINSYELSVSVQLR  5.35 ± 0.075
13. SSWSSNQNSTYTLRSYTALH  5.2 ± 0.069
14. SVNYFLRGHKPRVNVVPSVE  5.119 ± 0.046
15. SPCFWMLPVKKPPACR  5.082 ± 0.039
16. TASHTWSVVCFTWYRCLVND  4.98 ± 0.051
17. SWLRMSTDVIGLRWFDGNA  4.84 ± 0.065
18. SRYFVVAGRSLNTCVNMCCV  4.78 ± 0.069
19. SNFVTVSGTPPHIILMCKDW  4.71 ± 0.055
20. TADLDIDGPVS  4.64 ± 0.094
21. SWFRFCMYWFSDCRNILGS  4.58 ± 0.051
22. STVMWLRASLRIQNYTRGDT  4.54 ± 0.052
23. SPLYLTLCMTLQVYGSR  4.04 ± 0.073
24. SWGGLSKGYCLFQSWRVVLG  3.75 ± 0.054
25. SNVDVFVTKMWRATQSCFRL  3.67 ± 0.12
26. SNYHSGRVKGGDVGVYIS  3.57 ± 0.051
27. SPNRQLVKFYFQTTYMVSRL  3.52 ± 0.071
28. SVLELYRTSIFYLRLVSNLL  3.52 ± 0.079
29. SVKNR  3.51 ± 0.049
30. SYEVNIYKLRLQGSSSGF  3.44 ± 0.066
31. SPRSAIFSLTTQVF  3.34 ± 0.13
32. SYFSCCLFFRAFSTFFGVIP  3.33 ± 0.11
33. SYVVPGFISASFYLCYCTSK  3.03 ± 0.12
34. SVLQTTFVLVVGKTYNTSTD  2.94 ± 0.072
35. STLSWSFIYTSIC  2.24 ± 0.1
36. SSFHWPIKSRDAGVAWSRGG  2.07 ± 0.18
37. TAAVILLIVNRDANA  1.94 ± 0.14
38. SYSFRVVDWVYILTYLRKFE  1.65 ± 0.33
39. SSASFSVHQYCYLLNPSF  1.45 ± 0.28
40. SVGIVSSDRCLCLMSM  1.3 ± 0.39
41. SYFDMWIGW  1.2 ± 0.47
42. TCGLFTA  1.2 ± 0.44
43. SYDSPPSEHLVPVAQSISVP  1.17 ± 0.44
44. SPYLMSTDKIRLSP  1.16 ± 0.44
45. STAWKCEVYRRV  1.14 ± 0.33
46. SSYRSEGSAYGMPYYPVSAS  1.06 ± 0.38
47. SPHASMTIVIF  1.04 ± 0.22
48. STDWNLRPGPSLRWLLSPAT  0.92 ± 0.45
49. SSFRSLRSRHPPGTLPPDTP  0.919 ± 0.3
50. SYSLIVE  0.919 ± 0.48
51. SRSAWLRELDPPA  0.839 ± 0.43
52. SQPHYGRASACRSSSSR  0.831 ± 0.51
53. SVSNVPRGWSLTRGLSTVPG  0.828 ± 0.22
54. SNLVKHRQV  0.745 ± 0.46
55. SVSQPYSKSVGLRGRGKQGQ  0.737 ± 0.46
56. SSVRR  0.723 ± 0.22
57. SSQFR  0.705 ± 0.44
58. SWWAY  0.69 ± 0.62
59. SPKTYRRIIGIGQVAVRVCK  0.673 ± 0.25
60. SQCFERV  0.637 ± 0.36
61. TASMGVVVSDENWE  0.633 ± 0.14
62. SYIGMNQNCFSEQLNNAQTG  0.606 ± 0.18
63. SVGVTVSRVASREGSSRSRA  0.573 ± 0.36
64. SNWNTTPVSPS  0.514 ± 0.44
65. SPIPFPYMYVYSMWCDTLTR  0.505 ± 0.3
66. SWVLLAY  0.45 ± 0.8
67. SMRTG  0.448 ± 0.23
68. SRDVAAYNRRRRFAVLGWGE  0.44 ± 0.38
69. SYGNEFMM  0.363 ± 0.57
70. SYYEFVVNLGKPAISVDSIT  0.349 ± 0.51
71. SNGCQTRADGLTECDICKPS  0.33 ± 0.24
72. SVDGMLSVSVLVNDVVKTPL  0.309 ± 0.22
73. SYHRQRSNTFTAKLQCSRSW  0.307 ± 0.56
74. SRSSTCGSRGLTGNRGGGIG  0.299 ± 0.45
75. SRGISKVTWP  0.276 ± 0.28
76. SRVYRCGWLGS  0.274 ± 0.65
77. SYWIADTNRSGNRRLSCGRC  0.266 ± 1
78. SYGFQVLDAKDVLMLAFVWA  0.255 ± 1.1
79. SSLVVMMGILMEVTVAGLGV  0.241 ± 0.37
80. SPYAFACAGCSGVKG  0.234 ± 0.26
81. SRCLSSITVLTCNHMSVKAC  0.224 ± 0.8
82. SRYSSV  0.172 ± 0.65
83. SVRNNLAVGDKLFNVTADCN  0.168 ± 0.8
84. SNPSVNLCRWIDACNSDLIT  0.165 ± 1
85. SNCRQSPYNNQVI  0.155 ± 1.1
86. SQKNCCKVEGRLMASRVKPR  0.155 ± 1.1
87. SSWYHFDFGYCECGSNDGFV  0.102 ± 0.79
88. SSCPYYHGYNVRVMSCSHVI  0.091 ± 0.4
89. STTQEF  0.086 ± 0.32
90. SPHDVGNSIVIMGFRMWLN  0.082 ± 0.44
91. SRSSHLM  0.073 ± 0.37
92. SSAYQMSEY  0.072 ± 1.1
93. SNVFEVGPMGPSR  0.056 ± 0.5
94. SPMTDLVRMRGRME  0.051 ± 0.49
95. STMAGTLW  0.051 ± 0.4
96. SQGIVSDAANYMHILSAGYD  0.044 ± 0.55
97. SPMNDLY  0.041 ± 0.49
98. SRFGGVSTHYLARSFVDVTM  0.039 ± 0.44
99. SYDPGITSSWMVRIRRVRMC  -0.001 ± 0.49
100. SNCFHLVW  -0.031 ± 1
101. SYFHNHWFCLRQFRVDASWC  -0.047 ± 0.46
102. SSKLLYM  -0.059 ± 0.55
103. TATGTIECMVYPLTFSSLSP  -0.1 ± 1
104. SSYLMTYC  -0.104 ± 0.35
105. TAKLFDISTCKCPD  -0.105 ± 0.79
106. SVRFAC  -0.114 ± 1.1
107. TCNSGRYSRAACAWWN  -0.114 ± 0.45
108. SSLWSGPKVIQDY  -0.122 ± 0.28
109. SMYVDVFLRFGSWLHSFT  -0.127 ± 0.74
110. SVYMLRLNYYSFVVLRQTGA  -0.135 ± 0.79
111. SSQCYYGPLFWSYEFRSYCV  -0.162 ± 0.46
112. SRANMQSRCRLNNQSVYGKL  -0.175 ± 0.45
113. SSLFMTIWDSFSPI  -0.186 ± 0.45
114. SWLYLPWLLLQARILHR  -0.197 ± 0.24
115. SPLCVF  -0.211 ± 0.38
116. SVRKGVFNSSMNGVCTTVQS  -0.28 ± 0.74
117. SNFPWPMERPEFSDDSVFWA  -0.313 ± 0.76
118. SVYREWLPSSSRVWCMSLSG  -0.317 ± 0.63
119. SNIYLVPRFIWP  -0.338 ± 0.61
120. SRMLYVQIWREYVNSWKTSS  -0.356 ± 0.38
121. SYARIYFWDEILENPSPVWE  -0.378 ± 1
122. STNRWQHIL  -0.382 ± 0.48
123. SSADMQRY  -0.383 ± 0.48
124. SRDCVRDLSVMCSLWKWFPV  -0.394 ± 1.1
125. STYLFNSSHPVSVISEAQFS  -0.408 ± 0.79
126. SSWPSMST  -0.458 ± 0.28
127. SVVFDYCSGIVSRY  -0.483 ± 1.1
128. STGIGDNATFSYRISRYSVC  -0.492 ± 0.39
129. SSASLGVAV  -0.517 ± 0.76
130. SSNSANVILASYEDYRRVNP  -0.526 ± 0.79
131. TAAPSEVMPIMALRPPKESS  -0.541 ± 0.79
132. SVVYSFTRMPVGIFLMISEL  -0.552 ± 0.35
133. SWVVL  -0.563 ± 0.79
134. SRIRDLVPHIRC  -0.594 ± 1.1
135. STRVWWDSWMFWLNEK  -0.607 ± 1
136. STSWGSRSVDCC  -0.609 ± 0.25
137. SVVVNPCLLA  -0.623 ± 1
138. SVYRFFAKSKMKCWGLHNGG  -0.63 ± 0.55
139. SVNSC  -0.654 ± 1
140. STSRFTMQQRRKLYKSFCWR  -0.665 ± 1.1
141. SNGLGLQCGIRGKVFNELLS  -0.674 ± 0.42
142. SSEIKRSWGYFLSLLWFYYR  -0.696 ± 1
143. SYGIAWTIMT  -0.701 ± 0.45
144. SRGSYIPSPLRHSFSVLWRF  -0.785 ± 0.63
145. SWNELSRFLVILLFQLSRDR  -0.795 ± 0.43
146. SRHRVLFFYKFVCLIWV  -0.8 ± 0.74
147. SVIIQLSYTRGYWLLQA  -0.845 ± 0.45
148. STLHQSIKTGDIFFDSGTFV  -0.889 ± 0.49
149. SYAYVSKMYVKYCQLKFI  -0.921 ± 0.78
150. SRNSLLRS  -0.924 ± 0.45
151. SYHNVG  -0.974 ± 0.61
152. STSVWRGLSRPRNVQRRLDT  -0.985 ± 0.42
153. TALDAGHA  -1.19 ± 0.45
154. SRRVLYMVVPPLVF  -1.36 ± 0.54
155. TCICEVHTPTSSMISPSMSF  -1.51 ± 0.75
156. SVLIFATRKCLYFYLGFMR  -1.66 ± 0.45

In the case of SNESNFIVICVCMDCIRGGG, the amyloid nucleation score is reported as “inactive”.
For SNGCRRALL, the amyloid nucleation score was “inactive”.
In the case of SNNHND, the amyloid nucleation score is reported as “inactive”.
In the case of SQLLDSLQNGRGCYSM, the amyloid nucleation score is reported as “inactive”.
With SRLISTHTAT the amyloid nucleation score was “inactive”.
With SRSFKVRNL the amyloid nucleation score was “inactive”.
In the case of SRSILLKAGWI, the amyloid nucleation score is reported as “inactive”.
With SSCYSVLGMRL the amyloid nucleation score was “inactive”.
In the case of STDIWVWFYRNFLMTANRN, the amyloid nucleation score is reported as “inactive”.
With STMFSVNFST the amyloid nucleation score was “inactive”.
For SVFSYMYRLNSALLYFFYQS, the amyloid nucleation score was “inactive”.
For SVLTCKLK, the amyloid nucleation score was “inactive”.
For SVSVYTASS, the amyloid nucleation score was “inactive”.
For SWALKRAPVGNR, the amyloid nucleation score was “inactive”.
With SWGSVRNRMCMSGGRKSSDA the amyloid nucleation score was “inactive”.
For SWVSFDKSLHMGVVYDRLRR, the amyloid nucleation score was “inactive”.
For SYVAFLSTTRASSMI, the amyloid nucleation score was “inactive”.
In the case of SYVYMREKSIGTDSAVLRSM, the amyloid nucleation score is reported as “inactive”.
In the case of TAGFRILRRHFSIGVGSRTW, the amyloid nucleation score is reported as “inactive”.
